Reference: PMC4960622, “Crystal structures of RidA, an important enzyme for the prevention of toxic side products” (Scientific Reports, 2016)

B1: Arabidopsis thaliana RidA, construct starting from S68 (AtRidA-S68), wild type [Arabidopsis thaliana] / itself (parent)
chain: STEKAPAALGPYSQAIKANNLVFLSGVLGLIPETGKFVSESVEDQTEQVLKNMGEILKASGADYSSVVKTTIMLADLADFKTVNEIYAKYFPAPSPARSTYQVAALPLNAKIEIECIATL

Variants of: B1
Test: size-exclusion chromatography (Superdex-75)
Conditions: with itself; 0.5 mg protein loaded; read off a plot

Variant	screen value
chain 1 K69A	12 mL
chain 1 E115A	11.6 mL

Next, values leading:

screen value	Variant
11.4 mL	chain 1 S13A
11.6 mL	chain 1 S99A
11.4 mL	chain 1 K69R
